Data from patent publication US20170226215A1 (SORRENTO THERAPEUTICS, published 2017).
Residue numbers refer to the chain shown, from its start.

B1: anti-CD137 antibody MB3 (antibody, V domains shown)
VH: QMQLVQSGAEVKKPGASVKVSCKASGYQMRGYYMHWVRQAPGQGLEWMGWINPNSGGTNYAQKFQGRVTITRDTSASTAYMELSSLRSEDTAVYYCAREGEAVGLDLDYWGQGTLVTVSS
VL: SYELTQPPSVSVAPGKTARITCGGNNIGSKSVHWYQQKPGQAPVLVIYYDSDRPSGIPERFSGSNSGNTATLTISRVEAGDEADYYCQVWDSSSVVFGGGTQLTVL
notes: IgG class, variant of D6
B2: anti-CD137 antibody MB12 (antibody, V domains shown)
VH: B1 VH with Q28S, M29L, R30E
VL: B1 VL
notes: IgG class, variant of D6
B3: anti-CD137 antibody MSC8 (antibody, V domains shown)
VH: B1 VH with Q28N, M29F, R30G, I51V, N54K
VL: B1 VL
notes: IgG class, variant of D6

biological target: T1, recombinant human CD137/Fc (human, UniProt Q07011 24-186); assay: ELISA, plate coated with recombinant human CD137/Fc at 2 µg/mL, antibody at about 1 µg/mL (single concentration), HRP anti-human lambda, OD 450 nm
T1 construct: Coated on the ELISA plate at 2 µg/mL; not shown: Fc part
Method: A Maxisorp plate was coated with recombinant human CD137/Fc or mouse CD137/Fc at 2 μg/mL at 4° C., overnight. The plate was blocked for 1 hour at room temperature, washed 3 times with PBS-Tween (PBST), then anti-CD137 antibodies (˜1 μg/mL) diluted in casein were added and incubated for 30 min with shaking. The plate was washed 3 times with PBST, horseradish peroxidase (HRP)-conjugated mouse anti-human Lambda (1:1000 in casein) was added, then 3,3′,5,5′-Tetramethylbenzidine (TMB) was added as substrate and developed about 5 min. 2M H₂SO₄ was used to stop the reaction and the OD was read at 450 nm.

Binding result, binds:
B1
B2
B3
